Measurements published in article PMC3164694.

Target: gelatin layer (gelatin coated glass coverslips)
Test: not stated; unpublished data (Collier and Goldberg); affinity for gelatin

## MMP-9 pro-enzyme homo-dimer (complex)
  fold higher affinity of the dimer for gelatin: 10 fold
